Data from article doi:10.1101/551788.

Biological target: Tom20.CIB.GFP (not stated | A. thaliana)
Assay: light-induced recruitment to mitochondria

Substance	half-life of association with the OMM [min]
Cry2(1-531).L348F.mCh (from UniProt Q96524 1-531) (domain or fragment)	32.8
Cry2(1-531).mCh (from UniProt Q96524 1-531) (domain or fragment)	6.25
